Experimental data: patent US20110064740A1

Tests used:
[1] = target: Cell-surface full length amyloid precursor protein (APP) on HEK293T cells transfected with wild type APP DNA (UniProt P05067); assay: FMAT ABI8200, HEK293T cells transfected with wild type APP, mock subtracted; Experiment 1
[2] = target: Cell-surface full length amyloid precursor protein (APP) on HEK293T cells transfected with wild type APP DNA (UniProt P05067); assay: FMAT ABI8200, HEK293T cells transfected with wild type APP, mock subtracted; Experiment 2

Sequence of Cell-surface full length amyloid precursor protein (APP) on HEK293T cells transfected with wild type APP DNA (P05067 18-770): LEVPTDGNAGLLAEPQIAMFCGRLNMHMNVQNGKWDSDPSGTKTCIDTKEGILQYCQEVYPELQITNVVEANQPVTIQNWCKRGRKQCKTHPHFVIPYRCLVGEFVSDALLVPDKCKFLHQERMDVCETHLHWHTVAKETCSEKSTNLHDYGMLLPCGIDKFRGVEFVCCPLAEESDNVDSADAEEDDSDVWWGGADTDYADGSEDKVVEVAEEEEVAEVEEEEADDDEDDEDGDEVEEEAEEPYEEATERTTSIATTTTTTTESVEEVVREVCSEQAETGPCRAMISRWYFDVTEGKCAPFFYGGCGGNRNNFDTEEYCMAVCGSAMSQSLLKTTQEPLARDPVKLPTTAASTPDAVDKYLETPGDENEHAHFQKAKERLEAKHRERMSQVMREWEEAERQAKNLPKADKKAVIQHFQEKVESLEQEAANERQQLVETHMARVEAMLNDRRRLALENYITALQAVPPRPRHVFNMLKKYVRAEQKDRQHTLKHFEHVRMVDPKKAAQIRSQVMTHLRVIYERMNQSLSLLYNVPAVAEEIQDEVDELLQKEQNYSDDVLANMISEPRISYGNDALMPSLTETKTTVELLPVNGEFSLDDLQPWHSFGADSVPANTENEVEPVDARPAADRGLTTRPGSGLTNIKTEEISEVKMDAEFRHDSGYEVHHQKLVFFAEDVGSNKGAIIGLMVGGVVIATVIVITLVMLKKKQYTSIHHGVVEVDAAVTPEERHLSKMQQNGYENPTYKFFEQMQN

% of LN27 binding [1] [%] | % of LN27 binding [2] [%] | Substance
100 | 100 | LN27 (Zymed) mouse IgG to extracellular domain of APP (antibody)
5.5 | 2 | Antibody G210 which recognises the x-40 form of the β-amyloid peptide
